± gives the uncertainty stated by the source.
B1: Poly(rC)-binding protein 1, residues 278 to 350; numbered along this chain, Q15365 (parent)
chain: TQTTHELTIPNNLIGCIIGRQGANINEIRQMSGAQIKIANPVEGSSGRQVTITGSAASISLAQYLINARLSSE

Variants of: B1
Test: abundance fitness (aPCA) (normalised: wild type 0, dead -1); higher = more abundant; growth selection in yeast, the domain comes from the species named
Conditions: Homo sapiens

First: S55P
Second: S55Q
The abundance fitness of the first is higher: -0.102 ± 0.049 for the first, -0.336 ± 0.051 for the second.

First: S55T
Second: S55V
The abundance fitness of the first is higher: 0.001 ± 0.047 for the first, -0.396 ± 0.056 for the second.

Compared with S55W, S55Y is higher in abundance fitness: -0.575 ± 0.065 for the first, -0.119 ± 0.17 for the second.

A56C and A56D are within error of each other in abundance fitness: -0.102 ± 0.07 for the first, -0.029 ± 0.06 for the second.

A56E and A56F are within error of each other in abundance fitness: -0.044 ± 0.047 for the first, 0.032 ± 0.11 for the second.

A56G and A56H are within error of each other in abundance fitness: -0.077 ± 0.034 for the first, -0.027 ± 0.089 for the second.

A56I and A56K are within error of each other in abundance fitness: -0.024 ± 0.11 for the first, 0.029 ± 0.055 for the second.

A56L and A56M are within error of each other in abundance fitness: 0.026 ± 0.051 for the first, 0.081 ± 0.062 for the second.

First: A56N
Second: A56Q
The abundance fitness of the first is lower: -0.078 ± 0.078 for the first, 0.076 ± 0.062 for the second.

A56R and A56T are within error of each other in abundance fitness: -0.039 ± 0.035 for the first, 0.026 ± 0.066 for the second.

Going from A56V to A56W, the abundance fitness falls from -0.072 ± 0.047 to -0.269 ± 0.052.

First: A56Y
Second: A57C
The abundance fitness of the first is lower: -0.245 ± 0.091 for the first, -0.035 ± 0.077 for the second.

A57D and A57E are within error of each other in abundance fitness: 0.074 ± 0.071 for the first, 0.088 ± 0.05 for the second.

A57F and A57G are within error of each other in abundance fitness: -0.096 ± 0.12 for the first, -0.126 ± 0.037 for the second.

A57H and A57I are within error of each other in abundance fitness: 0.051 ± 0.11 for the first, -0.127 ± 0.14 for the second.

Going from A57K to A57L, the abundance fitness falls from 0.116 ± 0.051 to -0.327 ± 0.055.

Compared with A57M, A57N is higher in abundance fitness: -0.204 ± 0.069 for the first, 0.061 ± 0.086 for the second.

A57P and A57Q are within error of each other in abundance fitness: -0.02 ± 0.053 for the first, 0.068 ± 0.065 for the second.

A57R and A57S are within error of each other in abundance fitness: 0.059 ± 0.035 for the first, 0.016 ± 0.042 for the second.

First: A57T
Second: A57V
The abundance fitness of the first is higher: -0.125 ± 0.056 for the first, -0.243 ± 0.046 for the second.

A57W and A57Y are within error of each other in abundance fitness: -0.247 ± 0.055 for the first, -0.194 ± 0.12 for the second.

First: S58C
Second: S58D
The abundance fitness of the first is lower: -0.241 ± 0.076 for the first, 0.009 ± 0.068 for the second.

Compared with S58E, S58F is lower in abundance fitness: 0.052 ± 0.038 for the first, -0.149 ± 0.14 for the second.

Going from S58G to S58I, the abundance fitness falls from -0.227 ± 0.035 to -0.988 ± 0.43.

Compared with S58K, S58L is lower in abundance fitness: -0.3 ± 0.06 for the first, -0.801 ± 0.076 for the second.

Compared with S58M, S58N is higher in abundance fitness: -0.354 ± 0.06 for the first, 0.009 ± 0.14 for the second.

Going from S58P to S58Q, the abundance fitness rises from -0.47 ± 0.082 to 0.08 ± 0.045.

Going from S58T to S58V, the abundance fitness falls from -0.241 ± 0.051 to -0.568 ± 0.052.

Going from S58W to I59A, the abundance fitness rises from -0.949 ± 0.11 to -0.044 ± 0.035.

Going from I59C to I59D, the abundance fitness falls from 0.098 ± 0.068 to -0.567 ± 0.29.

I59E and I59G are within error of each other in abundance fitness: -0.626 ± 0.081 for the first, -0.66 ± 0.051 for the second.

I59K and I59L are within error of each other in abundance fitness: -0.323 ± 0.092 for the first, -0.355 ± 0.061 for the second.

I59M and I59N are within error of each other in abundance fitness: -0.477 ± 0.12 for the first, -0.423 ± 0.22 for the second.

First: I59P
Second: I59Q
The abundance fitness of the first is lower: -0.764 ± 0.098 for the first, -0.421 ± 0.08 for the second.

I59T and I59V are within error of each other in abundance fitness: -0.008 ± 0.044 for the first, 0.063 ± 0.047 for the second.

I59W and I59Y are within error of each other in abundance fitness: -0.752 ± 0.082 for the first, -0.93 ± 0.42 for the second.

S60A and S60C are within error of each other in abundance fitness: -0.064 ± 0.037 for the first, -0.098 ± 0.062 for the second.

S60D and S60E are within error of each other in abundance fitness: 0.191 ± 0.061 for the first, 0.124 ± 0.042 for the second.

S60F and S60G are within error of each other in abundance fitness: -0.102 ± 0.12 for the first, -0.05 ± 0.034 for the second.

Compared with S60H, S60I is lower in abundance fitness: 0.051 ± 0.084 for the first, -0.337 ± 0.22 for the second.

Going from S60K to S60L, the abundance fitness falls from -0.047 ± 0.063 to -0.354 ± 0.075.

Going from S60P to S60Q, the abundance fitness rises from -0.635 ± 0.084 to 0.023 ± 0.058.

Going from S60T to S60V, the abundance fitness falls from 0.012 ± 0.046 to -0.352 ± 0.073.

Going from S60Y to L61C, the abundance fitness rises from -0.298 ± 0.11 to 0.022 ± 0.063.

L61D and L61E are within error of each other in abundance fitness: 0.02 ± 0.07 for the first, 0.091 ± 0.033 for the second.

Compared with L61F, L61G is lower in abundance fitness: -0.074 ± 0.097 for the first, -0.504 ± 0.044 for the second.

Compared with L61I, L61K is higher in abundance fitness: 0.012 ± 0.089 for the first, 0.266 ± 0.039 for the second.

Going from L61M to L61N, the abundance fitness falls from 0.001 ± 0.065 to -0.278 ± 0.13.

Compared with L61P, L61Q is higher in abundance fitness: -0.943 ± 0.16 for the first, 0.111 ± 0.044 for the second.

First: L61R
Second: L61S
The abundance fitness of the first is higher: 0.253 ± 0.033 for the first, 0.084 ± 0.039 for the second.

First: L61T
Second: L61V
The abundance fitness of the first is higher: 0.139 ± 0.044 for the first, -0.052 ± 0.041 for the second.

Going from L61W to A62C, the abundance fitness falls from -0.238 ± 0.054 to -0.768 ± 0.23.

A62D and A62E are within error of each other in abundance fitness: -0.711 ± 0.24 for the first, -0.902 ± 0.15 for the second.

A62F and A62G are within error of each other in abundance fitness: -0.657 ± 0.26 for the first, -0.622 ± 0.071 for the second.

A62K and A62M are within error of each other in abundance fitness: -0.888 ± 0.14 for the first, -0.948 ± 0.16 for the second.

A62N and A62P are within error of each other in abundance fitness: -0.828 ± 0.4 for the first, -0.606 ± 0.1 for the second.

A62Q and A62R are within error of each other in abundance fitness: -0.78 ± 0.29 for the first, -0.734 ± 0.083 for the second.

First: A62T
Second: A62V
The abundance fitness of the first is lower: -0.794 ± 0.12 for the first, -0.448 ± 0.07 for the second.

Going from A62W to Q63A, the abundance fitness rises from -0.882 ± 0.31 to -0.077 ± 0.045.

Q63C and Q63D are within error of each other in abundance fitness: -0.078 ± 0.11 for the first, 0.091 ± 0.12 for the second.

Q63E and Q63F are within error of each other in abundance fitness: -0.002 ± 0.061 for the first, -0.175 ± 0.12 for the second.

Q63G and Q63H are within error of each other in abundance fitness: -0.264 ± 0.058 for the first, -0.124 ± 0.23 for the second.

Q63I and Q63K are within error of each other in abundance fitness: 0.064 ± 0.12 for the first, 0.223 ± 0.069 for the second.

First: Q63L
Second: Q63M
The abundance fitness of the first is higher: 0.116 ± 0.06 for the first, -0.04 ± 0.07 for the second.

First: Q63P
Second: Q63T
The abundance fitness of the first is lower: -1.17 ± 0.27 for the first, 0.006 ± 0.053 for the second.

Compared with Q63V, Q63W is lower in abundance fitness: -0.019 ± 0.046 for the first, -0.28 ± 0.082 for the second.

Compared with Q63Y, Y64C is higher in abundance fitness: -0.469 ± 0.22 for the first, 0.195 ± 0.09 for the second.

Y64D and Y64E are within error of each other in abundance fitness: 0.411 ± 0.072 for the first, 0.298 ± 0.053 for the second.

Going from Y64F to Y64G, the abundance fitness rises from -0.266 ± 0.23 to 0.212 ± 0.038.

Y64H and Y64K are within error of each other in abundance fitness: 0.064 ± 0.14 for the first, 0.233 ± 0.074 for the second.

Y64L and Y64M are within error of each other in abundance fitness: -0.031 ± 0.078 for the first, -0.098 ± 0.11 for the second.

Compared with Y64N, Y64P is lower in abundance fitness: 0.328 ± 0.082 for the first, -0.312 ± 0.13 for the second.

Y64Q and Y64R are within error of each other in abundance fitness: 0.14 ± 0.098 for the first, 0.28 ± 0.043 for the second.

Y64S and Y64T are within error of each other in abundance fitness: 0.24 ± 0.05 for the first, 0.287 ± 0.059 for the second.

First: Y64V
Second: Y64W
The abundance fitness of the first is higher: 0.121 ± 0.05 for the first, -0.209 ± 0.11 for the second.

Going from L65A to L65D, the abundance fitness falls from 0.076 ± 0.056 to -0.419 ± 0.23.

First: L65E
Second: L65G
The abundance fitness of the first is higher: -0.191 ± 0.08 for the first, -0.416 ± 0.056 for the second.

L65K and L65M are within error of each other in abundance fitness: -0.422 ± 0.25 for the first, -0.36 ± 0.18 for the second.

L65P and L65Q are within error of each other in abundance fitness: -0.779 ± 0.25 for the first, -0.442 ± 0.14 for the second.

L65R and L65S are within error of each other in abundance fitness: -0.689 ± 0.1 for the first, -0.582 ± 0.13 for the second.

Going from L65T to L65V, the abundance fitness falls from -0.462 ± 0.14 to -0.789 ± 0.18.

L65W and L65Y are within error of each other in abundance fitness: -0.166 ± 0.066 for the first, -0.093 ± 0.13 for the second.

I66A and I66C are within error of each other in abundance fitness: -0.438 ± 0.1 for the first, -0.188 ± 0.2 for the second.

I66F showed an abundance fitness of -0.414 ± 0.22.

Reference: the Human Domainome abundance scans (Beltran et al. 2025)
